For three substances, Km, kcat and kcat/Km results are on record in US9435807B2, “Use of leucyl tRNA synthetase” (Medicinal Bioconvergence Research Center, priority 2011, dated 2016).

As a reminder, the Km is the substrate concentration at which the rate is half of its maximum. In general, kcat refers to the number of substrate molecules converted per active site and unit of time at saturation. Broadly, the kcat/Km is the turnover number divided by the Michaelis constant.

What all share (assay type): biochemical
Data set [1] relates to T1, CC(C)C[C@H](N)C(=O)O.
T1 construct: made in house
Nature of the data set: Leucylation assay, LRS F50A/Y52A mutant. The note with it: other: LRS F50A/Y52, leucylation, substrate leucine; pH 7.6; 37.0 °C. Here is the method:
(§1) In FIG. 5b, leucylations by LRS WT and mutants (F50A/Y52A, F50A, and Y52A) were carried out by using 4 μM tRNALeu and 50 nM enzymes.
(§2) The leucylation assay was carried out in a buffer containing 1 mM spermine, 50 mM HEPES-KOH (pH7.6), 25 mM KCl, 5 mM MgCl2, 4 mM ATP, 2 mg/ml bovine liver tRNA^Leu, various concentrations of [^3H]Leu (60 Ci/mmol), and 10-100 nM of LRS. Reactions were initiated with enzyme and conducted in a 37° C. heat block. Aliquots (10 ul) were taken at different time points and quenched on Whatman filter pads that were presoaked with 5% trichloroacetic acid (TCA). The pads were washed three times for 10 min each with cold 5% TCA, and once with cold 100% ethanol. The washed pads were then dried. Radioactivity was quantified in a scintillation counter (Beckman Coulter)

The test system of data set [2] is CC(C)C[C@H](N)C(=O)O. Nature of the data set: Leucylation assay, LRS WT. Particulars: pH 7.6, 37.0 °C. Here is the method:
as §1, §2

For data set [3], the system named is CC(C)C[C@H](N)C(=O)O. Description: ATP-PPi exchange assay, WT LRS. Particulars: other: absence of tRNA^Leu (ATP-PPi exchange); pH 7.6; 37.0 °C. Here is the method: The ATP-PPi exchange reaction was performed in a reaction mixture containing 2 mM [^32P]pyrophosphate (PPi) (80.70 mCi/mL), 50 mM HEPES-KOH (pH 7.6), 2 mM MgCl2, 8 mM KF, 4 mM ATP, and various concentrations of leucine and 25 nM of LRS. Reaction were initiated with enzymes and conducted in a 37° C. heat block. Aliquots (10 ul) were taken at different time points, and the reactions were stopped using lml of quenching buffer (50 mM NaPPi, 3.5% HC1O4, 2% activated charcoal). The charcoal suspension was filtered through a Whatman GF/A filter, washed four times with 5 ml of water and rinsed with 10 ml of 100% ethanol. The charcoal powder on the filters was dried, and the synthesized [^32P]ATP was counted using a scintillation counter (Beckman Coulter).

The mark [4] stands for this setting: other: LRS WT, leucylation, substrate leucine.

Chain of LRS WT (Homo sapiens) (chain, as listed by the source): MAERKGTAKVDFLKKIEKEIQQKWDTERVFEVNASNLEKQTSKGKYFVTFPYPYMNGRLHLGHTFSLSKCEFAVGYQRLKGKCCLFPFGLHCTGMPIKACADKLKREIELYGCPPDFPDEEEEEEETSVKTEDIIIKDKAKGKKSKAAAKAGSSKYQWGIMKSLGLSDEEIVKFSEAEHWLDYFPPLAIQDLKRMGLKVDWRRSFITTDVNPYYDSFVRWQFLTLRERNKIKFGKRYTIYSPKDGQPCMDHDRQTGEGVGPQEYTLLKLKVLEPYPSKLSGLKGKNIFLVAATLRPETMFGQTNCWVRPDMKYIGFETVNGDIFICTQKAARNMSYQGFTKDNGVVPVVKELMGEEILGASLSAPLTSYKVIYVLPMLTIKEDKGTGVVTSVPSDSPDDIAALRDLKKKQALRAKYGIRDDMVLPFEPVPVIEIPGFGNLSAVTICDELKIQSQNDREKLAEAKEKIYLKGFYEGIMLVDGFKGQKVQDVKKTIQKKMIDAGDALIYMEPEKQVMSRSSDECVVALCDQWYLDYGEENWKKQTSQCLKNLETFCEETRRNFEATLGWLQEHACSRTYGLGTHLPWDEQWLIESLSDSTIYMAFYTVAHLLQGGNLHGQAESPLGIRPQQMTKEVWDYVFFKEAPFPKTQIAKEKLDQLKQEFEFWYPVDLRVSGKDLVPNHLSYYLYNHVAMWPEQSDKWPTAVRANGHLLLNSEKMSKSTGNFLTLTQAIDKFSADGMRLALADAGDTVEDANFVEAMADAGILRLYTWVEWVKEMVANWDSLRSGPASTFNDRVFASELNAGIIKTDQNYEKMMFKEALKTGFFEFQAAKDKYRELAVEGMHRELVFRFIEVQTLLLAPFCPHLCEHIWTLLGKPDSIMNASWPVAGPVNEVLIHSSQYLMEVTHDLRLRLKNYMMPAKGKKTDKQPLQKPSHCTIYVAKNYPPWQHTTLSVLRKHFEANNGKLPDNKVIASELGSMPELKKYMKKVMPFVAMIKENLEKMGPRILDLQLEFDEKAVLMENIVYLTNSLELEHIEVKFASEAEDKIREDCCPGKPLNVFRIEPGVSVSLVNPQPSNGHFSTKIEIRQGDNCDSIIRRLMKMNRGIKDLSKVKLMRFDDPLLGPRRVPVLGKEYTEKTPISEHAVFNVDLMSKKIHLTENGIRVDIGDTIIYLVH
Chain of LRS F50A/Y52 (Homo sapiens; F50A/Y52A) (chain, as listed by the source F50A F50A Y52A): as the sequence (chain, as listed by the source) above, with F50A, Y52A counted along it
Chain of LRS (Homo sapiens) (chain, as listed by the source): as the sequence (chain, as listed by the source) above

Regarding LRS F50A/Y52 (Homo sapiens; F50A/Y52A), the Km in the data set on CC(C)C[C@H](N)C(=O)O [1] was found to be 536 ± 63 µM.
On to LRS WT (Homo sapiens), for which, in the data set with CC(C)C[C@H](N)C(=O)O [2] (setting [4]), the Km is 15.9 ± 0.4 µM, the kcat stood at 0.368 ± 0.009 s⁻¹ and the kcat/Km came out at 22900 ± 570 M⁻¹ s⁻¹. The Km with CC(C)C[C@H](N)C(=O)O [2] (other: presence of tRNA^Leu (leucylation)) came out at 15.9 ± 0.4 µM.
Consider LRS (Homo sapiens), for which, in the data set with CC(C)C[C@H](N)C(=O)O [3], the Km worked out at 143 ± 61 µM.
